# Assay results reported in patent US20110178017A1 (PHASEBIO PHARMACEUTICALS, published 2011).
# T1: human Vasoactive Intestinal Peptide Receptor 1 (VPAC1) (human, UniProt P32241 31-457)
# T1 sequence (looked up): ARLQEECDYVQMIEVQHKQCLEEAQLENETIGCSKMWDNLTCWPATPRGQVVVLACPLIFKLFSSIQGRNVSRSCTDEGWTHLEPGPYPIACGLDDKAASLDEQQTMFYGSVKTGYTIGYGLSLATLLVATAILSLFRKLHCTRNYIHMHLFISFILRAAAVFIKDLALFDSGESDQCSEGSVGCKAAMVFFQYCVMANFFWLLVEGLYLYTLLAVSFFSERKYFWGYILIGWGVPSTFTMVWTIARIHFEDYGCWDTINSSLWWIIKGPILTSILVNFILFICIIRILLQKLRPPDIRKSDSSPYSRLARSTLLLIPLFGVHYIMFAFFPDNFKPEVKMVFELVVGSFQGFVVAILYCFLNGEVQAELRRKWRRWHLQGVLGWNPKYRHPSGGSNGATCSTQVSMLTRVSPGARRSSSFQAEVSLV
# Tests used:
# Experiment in all cases: cell-based or functional assay
# [1] = biological target: human Vasoactive Intestinal Peptide Receptor 2 (VPAC2) (human) (UniProt P41587)
# Sequence of human Vasoactive Intestinal Peptide Receptor 2 (VPAC2) (human) (P41587 24-438): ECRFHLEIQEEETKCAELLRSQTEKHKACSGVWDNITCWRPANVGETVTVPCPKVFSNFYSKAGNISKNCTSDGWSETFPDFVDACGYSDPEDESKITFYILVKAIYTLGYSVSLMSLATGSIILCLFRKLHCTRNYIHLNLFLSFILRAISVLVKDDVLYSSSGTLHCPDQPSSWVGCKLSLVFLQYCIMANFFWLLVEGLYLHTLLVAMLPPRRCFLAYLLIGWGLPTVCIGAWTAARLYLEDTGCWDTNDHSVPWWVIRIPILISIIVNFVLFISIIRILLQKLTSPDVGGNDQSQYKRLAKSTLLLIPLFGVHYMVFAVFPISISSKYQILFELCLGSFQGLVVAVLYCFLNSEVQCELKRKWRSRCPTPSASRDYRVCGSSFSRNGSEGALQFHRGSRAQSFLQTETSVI
# [2] = biological target: human Vasoactive Intestinal Peptide Receptor 1 (VPAC1) (human) (UniProt P32241)
# [3] = biological target: T1, human Vasoactive Intestinal Peptide …
"activity (cAMP) in CHO cells expressing VPAC2, relative to native VIP (fold less active than native VIP) [1]","activity (cAMP) in CHO cells expressing VPAC1, relative to native VIP (fold less active than native VIP) [2]","activity (cAMP) in CHO cells expressing VPAC1, relative to native VIP [3]",Molecule
1.5,1.4,–,PB1120 (VIP-ELP1-120 fusion peptide)
–,–,~11 fold less active than native VIP,PB1046 (M-VIP-ELP1-120 fusion protein) (other) MHSDAVFTDNYTRLRKQMAVKKYLNSILNVPGVGVPGVGVPGGGVPGAGVPGVGVPGVGVPGVGVPGGGVPGAGVPGGGVPGVGVPGVGVPGGGVPGAGVPGVGVPGVGVPGVGVPGGGVPGAGVPGGGVPGVGVPGVGVPGGGVPGAGVPGVGVPGVGVPGVGVPGGGVPGAGVPGGGVPGVGVPGVGVPGGGVPGAGVPGVGVPGVGVPGVGVPGGGVPGAGVPGGGVPGVGVPGVGVPGGGVPGAGVPGVGVPGVGVPGVGVPGGGVPGAGVPGGGVPGVGVPGVGVPGGGVPGAGVPGVGVPGVGVPGVGVPGGGVPGAGVPGGGVPGVGVPGVGVPGGGVPGAGVPGVGVPGVGVPGVGVPGGGVPGAGVPGGGVPGVGVPGVGVPGGGVPGAGVPGVGVPGVGVPGVGVPGGGVPGAGVPGGGVPGVGVPGVGVPGGGVPGAGVPGVGVPGVGVPGVGVPGGGVPGAGVPGGGVPGVGVPGVGVPGGGVPGAGVPGVGVPGVGVPGVGVPGGGVPGAGVPGGGVPGVGVPGVGVPGGGVPGAGVPGVGVPGVGVPGVGVPGGGVPGAGVPGGGVPGVGVPGVGVPGGGVPGAGVPGVGVPGVGVPGVGVPGGGVPGAGVPGGGVPGWP
